In paper PMC3046128, “Systematic Two-Hybrid and Comparative Proteomic Analyses Reveal Novel Yeast Pre-mRNA Splicing Factors Connected to Prp19” (PLoS ONE, 2011):
Each block holds one binder with its values, some of them ahead of it.

Key:
His6-ScPrp19(144–503) = target: T1, His6-ScPrp19(144–503) (S. cerevisiae, UniProt P32523 144-503); assay: pull-down; purified soluble MBP fusions incubated one hour at 4°C with Ni-NTA beads coated with His6-ScPrp19(144–503); washed; SDS-PAGE and Coomassie staining; conditions: both partners purified
T1 construct: Prp19, S. cerevisiae, amino acids 144–503; also called His6-Prp19(144–503); ScPrp19 WD40 domain; source: E. coli BL21 (pET15b), purified (Ni-NTA agarose)
T1 sequence (looked up): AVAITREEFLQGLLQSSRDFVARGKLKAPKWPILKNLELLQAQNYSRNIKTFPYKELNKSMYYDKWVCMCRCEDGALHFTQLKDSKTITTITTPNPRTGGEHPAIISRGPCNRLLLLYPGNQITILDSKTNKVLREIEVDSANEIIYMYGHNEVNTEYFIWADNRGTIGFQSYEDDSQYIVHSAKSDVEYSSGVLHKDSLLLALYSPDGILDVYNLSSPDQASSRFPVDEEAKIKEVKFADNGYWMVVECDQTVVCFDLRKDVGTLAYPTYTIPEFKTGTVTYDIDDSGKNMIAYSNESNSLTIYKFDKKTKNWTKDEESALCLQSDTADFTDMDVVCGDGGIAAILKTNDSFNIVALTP

S. pombe Prp19-Myc13 = target: T2, S. pombe Prp19-Myc13 (S. pombe, UniProt O14011 1-488); assay: co-IP; anti-HA immunoprecipitate from S. pombe cwf7-HA3 prp19-Myc13 prp17-Myc13 cells; anti-Myc immunoblot quantified on an Odyssey instrument; conditions: partners not purified
T2 construct: Prp19 (Cwf8), S. pombe, open reading frame tagged at the 3' end of the endogenous locus; also called SpPrp19; Cwf8; source: S. pombe, tagged at the endogenous locus, in lysate; not shown: Myc13, C-terminal, kept
T2 sequence (looked up): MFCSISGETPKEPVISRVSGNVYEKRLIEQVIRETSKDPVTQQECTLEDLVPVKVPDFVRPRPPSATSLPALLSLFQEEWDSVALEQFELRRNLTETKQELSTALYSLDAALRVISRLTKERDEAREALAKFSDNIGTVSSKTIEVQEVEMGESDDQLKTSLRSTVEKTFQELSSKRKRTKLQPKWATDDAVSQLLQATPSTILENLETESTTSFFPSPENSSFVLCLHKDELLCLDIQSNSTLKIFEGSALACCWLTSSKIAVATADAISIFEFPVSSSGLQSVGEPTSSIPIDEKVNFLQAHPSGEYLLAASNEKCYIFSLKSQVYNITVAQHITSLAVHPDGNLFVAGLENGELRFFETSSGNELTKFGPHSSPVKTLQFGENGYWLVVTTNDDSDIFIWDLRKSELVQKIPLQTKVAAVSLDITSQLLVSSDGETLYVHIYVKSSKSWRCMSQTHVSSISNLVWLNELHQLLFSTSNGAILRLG

[1] = target: T3, full length S. cerevisiae Prp19 (S. cerevisiae), P32523; assay: AUC; sedimentation velocity, 30,000 rpm, 22°C, 280 nm; Sedfit c(s) analysis; ScPrp19 constant with His6-ScUrn1 at 1∶1 or 1∶2.5 molar ratio; conditions: remark: other sources report otherwise
T3 chain: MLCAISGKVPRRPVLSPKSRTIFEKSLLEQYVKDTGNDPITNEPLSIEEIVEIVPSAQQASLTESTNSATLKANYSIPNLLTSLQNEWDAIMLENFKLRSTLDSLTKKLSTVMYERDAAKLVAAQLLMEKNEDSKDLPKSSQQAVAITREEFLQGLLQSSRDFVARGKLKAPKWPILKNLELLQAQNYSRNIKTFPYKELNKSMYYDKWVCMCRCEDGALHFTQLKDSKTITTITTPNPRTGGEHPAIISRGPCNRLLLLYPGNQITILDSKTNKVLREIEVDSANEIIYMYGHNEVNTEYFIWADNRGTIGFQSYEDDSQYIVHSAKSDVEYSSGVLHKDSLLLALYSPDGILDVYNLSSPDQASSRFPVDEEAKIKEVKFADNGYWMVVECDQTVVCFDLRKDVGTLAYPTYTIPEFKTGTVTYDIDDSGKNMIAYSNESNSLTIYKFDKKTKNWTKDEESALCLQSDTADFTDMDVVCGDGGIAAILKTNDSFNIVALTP

[2] = target: T4, full length S. cerevisiae Prp19 (S. cerevisiae, UniProt P32523 1-503); assay: as above; conditions: both partners purified
T4 construct: Prp19, S. cerevisiae, full length (mass 58.6 kDa); no tag is printed for Prp19 in this experiment; also called ScPrp19; source: E. coli BL21 (pETDuet-1), co-expressed with His6-ScUrn1, purified (Ni-NTA agarose, heparin agarose, gel filtration)
T4 sequence (looked up): T3 chain

stoichiometry N [1]: 4
B3: full length S. cerevisiae Prp19, P32523 1-503 (natural protein)
chain: T3 chain

binding result (His6-ScPrp19(144–503)): binds
B5: MBP-ScPrp17(1–140) (domain or fragment, S. cerevisiae, UniProt P40968 1-140, looked up)
chain: MGLVDGYDTSSDSDLNFDEGKSVHEKKNGNLHEDTSYEPSSNNIHKRKSHFTKSELKRRRKTRKGDGPWGSWSSSDDETSQASETQKEDQDIFVHALAEDNLDSEQIEVEEVSHFYGKSEKDYQGRGYLYPPNDVDVDLR
notes: Prp17/Cdc40, S. cerevisiae, residues 1–140; source: E. coli BL21 (pMAL-c2X), purified (amylose beads)

Second part, the binder before the results:

B1: MBP-ScUrn1(165–274) (domain or fragment, S. cerevisiae, UniProt Q06525 165-274, looked up)
chain: TGLVSGYGSSSGEEDEEEDEEEDEENEEQIVNQDISIIDDLNRIDTDDIDERNIFFELFDRYKLDKFSTWSLQSKKIENDPDFYKIRDDTVRESLFEEWCGERSGNATAE
notes: source: E. coli BL21 (pMAL-c2X), purified (amylose beads)
binding result (His6-ScPrp19(144–503)): binds

B2: S. pombe Prp17-Myc13 (natural protein, UniProt O43071 1-558, looked up)
chain: MLVANYSSDSEEQENSQSPNIQPLLHTENLAPAVVDNVKDDLIVSKGGNSRELARNVPVNEMVQPALGPANPFVTKEQDSIKNSITGYAEREYVPNFVFNQEYYANTHAIYGKRNFDDNEATTSTDLKRKSQKIKERREDPGDPSILEGDGAYKGPWAGYGSEQSSSPLEYSEYEEVESLDVKSEKDTESNNLGQNELLKEQLATPEVETHRSKEETILHKDRLFDYQNRSYMHVPNDVGINLSEEPGEQTCYIPKKHIFTWKGHTKGISCLRFFPISGHLLLSGSMDNQIKIWEVYHDRSLLRTFQGHARPIRDLSFSQDGRSFLSTSFDKTIKLWDTELGKCLNCFNSDRLTNCVKFQVDPDKPNEFLAGTADKRILQFDIRSPDIVQAYDHHLGGINSITFLENGKRFVTTSDDSSMRFWEYGTPVPIKFVADIAMHSMPRVALRPNGKSIACQSLDNCIYVYSAYEKYRQNKKKVFKGYSCSGYSLEVGFSPDGRFVFSGDSSGNACFWDWKTCKLMAKLPAHSGPVQSMAFHPQETSKVATSSIVDGSIKYWD
notes: Prp17, S. pombe, open reading frame tagged at the 3' end of the endogenous locus; also called SpPrp17; source: S. pombe, tagged at the endogenous locus, in lysate; not shown: Myc13, C-terminal, kept
stoichiometry N (S. pombe Prp19-Myc13): 1.05 ratio of Myc-tagged proteins

B4: His6-ScUrn1 (natural protein, S. cerevisiae, UniProt Q06525 1-465, looked up)
chain: MRGEWQEFKTPAGKKYYYNKNTKQSRWEKPNLKKGSNLESNAKESQTERKPTFSLELVNGWHLIIYNDGTKLYFNDDSKEFKNDISQEDDSRCRSLIESLDKEKLVLLIGVARGYTMREEDIDKILESCNEEIHLFKRNQDEVERKDEISEEAGDVKSPLQESHTGLVSGYGSSSGEEDEEEDEEEDEENEEQIVNQDISIIDDLNRIDTDDIDERNIFFELFDRYKLDKFSTWSLQSKKIENDPDFYKIRDDTVRESLFEEWCGERSGNATAEESDSEDNSEDDSEVLEPTKYHYLAQIVANAGTIAPDTIPQDIRKQQKALYKAYKIKEYIPSKRDQDKFVSQLLFYYKTFDLEQRKEIFCDCLRDHERDFTGAVESLRQDKELIDRWQTLLKAPADSSSIEDILLSIEHRCCVSPIVVTEPRYYVVGILEKTVVWVRWLAAEVGPSSRFTPVGAGNEPINPE
notes: Urn1, S. cerevisiae (His6-ScUrn1 mass 55.1 kDa); the printed mass fits the whole protein; also called His6-Urn1; source: E. coli BL21 (pETDuet-1), co-expressed with ScPrp19, purified (Ni-NTA agarose, heparin agarose, gel filtration)
stoichiometry N [2]: 1 Urn1 per Prp19 tetramer
